Data taken from patent publication US20250297032A1 (CONCEPT TO MEDICINE BIOTECH, published 2025).

Target: T1, mouse FAPα-His protein (mouse, UniProt P97321 26-761, limits assumed)
T1 construct: not shown: His tag
T1 sequence (looked up): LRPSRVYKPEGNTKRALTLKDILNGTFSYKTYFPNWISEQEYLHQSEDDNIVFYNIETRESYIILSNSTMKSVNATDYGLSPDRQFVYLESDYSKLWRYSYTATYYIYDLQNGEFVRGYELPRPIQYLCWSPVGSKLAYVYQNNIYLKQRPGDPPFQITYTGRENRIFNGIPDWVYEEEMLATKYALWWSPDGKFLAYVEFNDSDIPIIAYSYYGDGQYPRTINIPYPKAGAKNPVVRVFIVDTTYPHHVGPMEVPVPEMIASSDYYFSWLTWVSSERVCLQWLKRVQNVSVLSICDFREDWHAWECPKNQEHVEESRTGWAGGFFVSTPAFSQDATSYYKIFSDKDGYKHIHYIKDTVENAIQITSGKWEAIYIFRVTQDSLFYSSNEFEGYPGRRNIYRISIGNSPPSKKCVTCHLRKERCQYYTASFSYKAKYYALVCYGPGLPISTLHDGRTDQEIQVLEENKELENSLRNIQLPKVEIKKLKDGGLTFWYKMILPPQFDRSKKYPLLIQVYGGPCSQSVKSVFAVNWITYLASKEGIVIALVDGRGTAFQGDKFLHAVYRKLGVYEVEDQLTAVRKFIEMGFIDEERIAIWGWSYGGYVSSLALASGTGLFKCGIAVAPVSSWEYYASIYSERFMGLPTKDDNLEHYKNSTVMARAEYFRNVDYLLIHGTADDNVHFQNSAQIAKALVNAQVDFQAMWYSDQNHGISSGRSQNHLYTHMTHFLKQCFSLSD
Assay: ELISA, coated mouse FAPα-His
Experimental: Briefly, microtiter plates were coated with mouse FAPα-His protein at 0.5 ug/ml in PBS, 100 μl/well at 4° C. overnight, then blocked with 150 μl/well of 1% BSA. Three-fold dilutions of tested antibodies starting from 1 μg/ml were added to each well and incubated for 1 hour at 37° C. The plates were washed with PBS/Tween and then incubated with Anti-Human IgG (H&L) (GOAT) Antibody Peroxidase Conjugated for 30 mins at 37° C. After washing, the plates were developed with TMB substrate and analyzed by spectrophotometer at OD 450 nm.

B1: I37 (antibody, V domains shown)
VH: QLQLVESGGGLVQPGGSLRLSCAASGFTFSSYAMSWVRQAPGKGLEWVSAISGSGGSTYYADSVKGRFTISRDNSKNTLYLQMNSLRAEDTAVYYCARDKPWGGSFDYWGQGTLVTVSA
VL: DIQLTQSPSSLSASVGDRVTITCRASQGISSWLAWYQQKPGKAPKLLIYAASSLQSGVPSRFSGSGSGTDFTLTISSLQPEDFATYYCQQANSFPVTFGPGTKVDIK
notes: Tested as a mAb; also called FAP-I37
EC50: 5.2 ng/mL
